The source of these data is patent US20250043290A1, “RNA SEQUENCES THAT INDUCE FLUORESCENCE OF SMALL MOLECULE FLUOROPHORES, MOLECULAR COMPLEXES, SENSORS, AND METHODS OF USE THEREOF” (CORNELL UNIVERSITY, priority 2021, published 2025).

Usually Kd stands for the equilibrium constant for the complex coming apart.

A short description of the data set: Dissociation constant of RNA-fluorophore complex, titration with DFHO. Conditions: 50 nM RNA, one-site saturation model. The format is binding. From the text: FIG. 2A is a schematic showing the secondary structure of Squash as predicted by mFOLD (Squash: 5′-GGCUACAAGGUGAGCCCAAUAAUACGGUUUGGGUUAGGAUAGGAAGUAGAGCCGUAAACUCUCUAAGCGGUAGUC-3′ (SEQ ID NO:1)). Squash retained the main structural elements of add A-riboswitch aptamer including a 3-way junction and predicted kissing loop interactions (residues at positions 30, 31, 56, and 57, solid gray line). An additional base pair in the kissing loop between loop L2 and L3 (residues at positions 29 and 58, dotted gray line) improved fluorescence activation. […] Shown are the excitation (Ex) and emission (Em) spectra of Squash bound to DFHBI-1T and DFHO (structures shown in inset). Spectra were measured using 20 μM RNA and 2 μM of the indicated fluorogenic dye. […] Fluorescence activation was measured by incubating 200 nM dye and 10 μM RNA. By using a large excess of RNA compared to the fluorophore, it was ensured that the fluorescence observed is from 200 nM RNA-fluorophore complex. Data represent mean values±s.d. for n=3 independent experiments. The values inside the bars indicate fold activation. AU, arbitrary units. […] FIG. 2E is a bar graph showing the results of an experiment in which Squash-DFHO fluorescence was measured in buffers containing exclusively the indicated cations. […]

B1: Squash: fluorogenic RNA aptamer evolved from the add A-riboswitch aptamer, binds DFHBI-1T and DFHO; SEQ ID NO: 12 (SEQ ID NO: 1) (nucleic acid)
chain: AGGUGAGCCCAAUAAUACGGUUUGGGUUAGGAUAGGAAGUAGAGCCGUAAACUCUCUAAGCG
modifications: RNA, backbone not given here
Regarding B1, the Kd came out at 54 nM.
